Assay results as given in patent US20230265151A1, “GIP/GLP1 CO-AGONIST COMPOUNDS” (priority 2020, published 2023).
*1 amine or outer side, *2 acyl side, *3 side chain or, on linkers, in order; H or OH if unused. Where no end group is shown, it is not given here. Side-chain parts run from the residue outwards. [ ]: non-standard residue; d: D form. The star is where a group is joined. Decanoyl(10-(4-HOOC-PhO)) = O=C(O)c1ccc(OCCCCCCCCCC(=O)*)cc1; αMePhe(2-F) = C[C@](N)(Cc1ccccc1F)C(=O)O; γGlu = O=C(O)[C@H](CCC(=O)[*:2])N[*:1]; αMeY = C[C@](N)(Cc1ccc(O)cc1)C(=O)O; αMeL = CC(C)C[C@](C)(N)C(=O)O; Nle = CCCC[C@H](N)C(=O)O; Orn = NCCC[C@H](N)C(=O)O; AEEA = NCCOCCOCC(=O)O; Aib = CC(C)(N)C(=O)O

T1: human GIP receptor (human, UniProt P48546 22-466)
T1 sequence (looked up): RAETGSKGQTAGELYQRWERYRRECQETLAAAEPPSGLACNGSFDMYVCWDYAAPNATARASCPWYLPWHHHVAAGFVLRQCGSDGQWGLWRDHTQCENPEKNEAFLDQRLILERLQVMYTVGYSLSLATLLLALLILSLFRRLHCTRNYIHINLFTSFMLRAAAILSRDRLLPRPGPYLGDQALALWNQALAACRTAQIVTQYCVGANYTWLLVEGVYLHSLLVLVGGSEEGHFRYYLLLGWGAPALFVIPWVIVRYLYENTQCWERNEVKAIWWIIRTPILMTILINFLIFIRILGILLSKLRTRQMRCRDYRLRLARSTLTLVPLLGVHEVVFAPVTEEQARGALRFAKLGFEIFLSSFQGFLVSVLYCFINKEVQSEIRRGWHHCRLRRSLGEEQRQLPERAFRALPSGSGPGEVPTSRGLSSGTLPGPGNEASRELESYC


Assays:
Experiment in all cases: cell-based or functional assay
human glucagon receptor = human glucagon receptor (human, UniProt P47871 26-477)
human GLP-1 receptor = human GLP-1 receptor (human, UniProt P43220 24-463)
human GIP receptor = target: T1, human GIP receptor

Binder	cAMP EC50 (human glucagon receptor) [nM]	cAMP EC50 (human GLP-1 receptor) [nM]	cAMP EC50 (human GIP receptor) [nM]
YXEGTXTSDXSIXLDXKAQXEFIXXLIKGGPSSGAPPPS (Aib2, αMeF(2F)6, hTyr10, αMeL13, Orn16, Aib20, D-Glu24, αMeY25; K17 and K28: AEEA2-(γ-Glu)-CO-(CH2)10-CH3; C-terminal NH2) [Example 335]	> 9950	0.175	0.00871
Y[Aib]EGT[αMePhe(2-F)]TSD[Nle]SI[αMeL]LD[Orn]IAQ[Aib]K([AEEA-AEEA-γGlu-Decanoyl(10-(4-HOOC-PhO))])FI[dE][αMeY]LIK([AEEA-AEEA-γGlu-Decanoyl(10-(4-HOOC-PhO))])GGPSSGAPPPS-NH2 (N-terminus assumed; SMILES CCCC[C@H](NC(=O)[C@H](CC(=O)O)NC(=O)[C@H](CO)NC(=O)[C@@H](NC(=O)[C@](C)(Cc1ccccc1F)NC(=O)[C@@H](NC(=O)CNC(=O)[C@H](CCC(=O)O)NC(=O)C(C)(C)NC(=O)[C@@H](N)Cc1ccc(O)cc1)[C@@H](C)O)[C@@H](C)O)C(=O)N[C@@H](CO)C(=O)N[C@H](C(=O)N[C@@](C)(CC(C)C)C(=O)N[C@@H](CC(C)C)C(=O)N[C@@H](CC(=O)O)C(=O)N[C@@H](CCCN)C(=O)N[C@H](C(=O)N[C@@H](C)C(=O)N[C@@H](CCC(N)=O)C(=O)NC(C)(C)C(=O)N[C@@H](CCCCNC(=O)COCCOCCNC(=O)COCCOCCNC(=O)CC[C@H](NC(=O)CCCCCCCCCOc1ccc(C(=O)O)cc1)C(=O)O)C(=O)N[C@@H](Cc1ccccc1)C(=O)N[C@H](C(=O)N[C@H](CCC(=O)O)C(=O)N[C@@](C)(Cc1ccc(O)cc1)C(=O)N[C@@H](CC(C)C)C(=O)N[C@H](C(=O)N[C@@H](CCCCNC(=O)COCCOCCNC(=O)COCCOCCNC(=O)CC[C@H](NC(=O)CCCCCCCCCOc1ccc(C(=O)O)cc1)C(=O)O)C(=O)NCC(=O)NCC(=O)N1CCC[C@H]1C(=O)N[C@@H](CO)C(=O)N[C@@H](CO)C(=O)NCC(=O)N[C@@H](C)C(=O)N1CCC[C@H]1C(=O)N1CCC[C@H]1C(=O)N1CCC[C@H]1C(=O)N[C@@H](CO)C(N)=O)[C@@H](C)CC)[C@@H](C)CC)[C@@H](C)CC)[C@@H](C)CC) [Example 333]	> 9950	0.388	0.0062
